# Results published in patent US20250123292.
# B1: Recombinant Human BMP-1/PCP (R&Dsystems, catalog Number: 1927-ZN) (protein)
# chain: AATSRPERVWPDGVIPFVIGGNFTGSQRAVFRQAMRHWEKHTCVTFLERTDEDSYIVFTYRPCGCCSYVGRRGGGPQAISIGKNCDKFGIVVHELGHVVGFWHEHTRPDRDRHVSIVRENIQPGQEYNFLKMEPQEVESLGETYDFDSIMHYARNTFSRGIFLDTIVPKYEVNGVKPPIGQRTRLSKGDIAQARKLYKCPACGETLQDSTGNFSSPEYPNGYSAHMHCVWRISVTPGEKIILNFTSLDLYRSRLCWYDYVEVRDGFWRKAPLRGRFCGSKLPEPIVSTDSRLWVEFRSSSNWVGKGFFAVYEAICGGDVKKDYGHIQSPNYPDDYRPSKVCIWRIQVSEGFHVGLTFQSFEIERHDSCAYDYLEVRDGHSESSTLIGRYCGYEKPDDIKSTSSRLWLKFVSDGSINKAGFAVNFFKEVDECSRPNRGGCEQRCLNTLGSYKCSCDPGYELAPDKRRCEAACGGFLTKLNGSITSPGWPKEYPPNKNCIWQLVAPTQYRISLQFDFFETEGNDVCKYDFVEVRSGLTADSKLHGKFCGSEKPEVITSQYNNMRVEFKSDNTVSKKGFKAHFFSEKRPALQPPRGRPHQLKFRVQKRNRTPQ
# Target: recombinant human endorepellin/perlecan (R&Dsystems, catalog Number: 2364-ER-050), intact, P98160
protein,measurement,value
B1,"measured levels of LG3 (LG3 ELISA) after in vitro cleavage, 24 hours at 37 C",LG3 was detected only in the endorepellin with BMP-1 sample
